# Test results from the MegaScale stability set (Tsuboyama et al. 2023).
# B1: EHEE_rd2_0191 (parent)
# chain: TTEYTFTDDEEARRAIEELKKRGLTFRYEKHGTTWRVRVD
# Variants of: B1
# Test: folding stability dG (cDNA display proteolysis); higher = more stable
# Conditions: PBS, room temperature
row,Variant,folding stability dG
1,G23Y,0.547 kcal/mol
2,G23A,0.759 kcal/mol
3,G23R,1.18 kcal/mol
4,G23T,-0.314 kcal/mol
5,G23W,0.206 kcal/mol
6,G23E,0.428 kcal/mol
7,G23N,1.4 kcal/mol
8,G23Q,0.972 kcal/mol
9,G23C,1.31 kcal/mol
10,G23L,0.596 kcal/mol
11,G23D,0.517 kcal/mol
12,G23K,1.21 kcal/mol
13,G23M,0.906 kcal/mol
14,G23H,1.26 kcal/mol
15,G23F,0.765 kcal/mol
16,G23S,0.756 kcal/mol
17,A15T,1.94 kcal/mol
18,A15K,1.97 kcal/mol
19,A15Q,1.29 kcal/mol
20,A15I,2.02 kcal/mol
21,A15W,2.9 kcal/mol
22,A15S,1.07 kcal/mol
23,A15M,2.85 kcal/mol
24,A15Y,2.87 kcal/mol

row,Variant,folding stability dG
1,A15H,1.73 kcal/mol
2,A15V,2.36 kcal/mol
3,A15G,1.06 kcal/mol
4,A15F,4.89 kcal/mol
5,A15C,3.17 kcal/mol
6,A15N,0.878 kcal/mol
7,A15L,2.63 kcal/mol
8,A15E,0.719 kcal/mol
9,A15R,1.08 kcal/mol
10,T25A,1.95 kcal/mol
11,T25D,1.46 kcal/mol
12,T25E,1.58 kcal/mol
13,I16G,-0.247 kcal/mol
14,I16M,2.23 kcal/mol
15,I16C,1.58 kcal/mol
16,I16Y,-0.65 kcal/mol
17,I16A,-0.729 kcal/mol
18,I16F,1.37 kcal/mol
19,I16T,-0.106 kcal/mol
20,I16N,0.255 kcal/mol
21,I16W,0.024 kcal/mol
22,I16V,1.12 kcal/mol
23,I16L,1.64 kcal/mol
24,K21F,1.63 kcal/mol

row,Variant,folding stability dG
1,K21D,1.32 kcal/mol
2,K21S,1.94 kcal/mol
3,K21R,2.35 kcal/mol
4,K21Y,1.49 kcal/mol
5,K21C,2.13 kcal/mol
6,K21M,1.9 kcal/mol
7,K21Q,1.81 kcal/mol
8,K21G,1.45 kcal/mol
9,K21I,1.79 kcal/mol
10,K21V,1.66 kcal/mol
11,K21A,2.12 kcal/mol
12,K21E,1.71 kcal/mol
13,K21T,1.82 kcal/mol
14,K21N,1.78 kcal/mol
15,K21W,1.37 kcal/mol
16,K21L,1.94 kcal/mol
17,K21H,1.58 kcal/mol
18,L19A,0.832 kcal/mol
19,L19V,0.238 kcal/mol
20,L19Y,1.58 kcal/mol
21,L19I,1.55 kcal/mol
22,L19M,1.73 kcal/mol
23,L19F,2.64 kcal/mol
24,L19W,1.94 kcal/mol

row,Variant,folding stability dG
1,R14Q,1.9 kcal/mol
2,R14S,1.75 kcal/mol
3,R14Y,1.64 kcal/mol
4,R14T,1.73 kcal/mol
5,R14L,1.91 kcal/mol
6,R14N,1.84 kcal/mol
7,R14M,1.97 kcal/mol
8,R14V,1.78 kcal/mol
9,R14W,1.68 kcal/mol
10,R22L,2.25 kcal/mol
11,R22F,1.55 kcal/mol
12,R22G,1.28 kcal/mol
13,R22S,1.93 kcal/mol
14,R22A,2.1 kcal/mol
15,R22Y,1.55 kcal/mol
16,R22Q,2.1 kcal/mol
17,R22T,1.56 kcal/mol
18,R22N,1.69 kcal/mol
19,R22V,1.23 kcal/mol
20,R22E,1.35 kcal/mol
21,R22H,1.64 kcal/mol
22,R22M,2.19 kcal/mol
23,R22I,1.52 kcal/mol
24,R22D,1.03 kcal/mol

row,Variant,folding stability dG
1,R22K,2.02 kcal/mol
2,R22W,1.78 kcal/mol
3,K20I,2.42 kcal/mol
4,K20D,1.15 kcal/mol
5,K20E,1.86 kcal/mol
6,K20C,2.56 kcal/mol
7,K20R,2.27 kcal/mol
8,K20L,2.15 kcal/mol
9,K20F,2.02 kcal/mol
10,K20A,1.81 kcal/mol
11,K20V,2.07 kcal/mol
12,K20S,1.81 kcal/mol
13,K20N,1.54 kcal/mol
14,K20H,1.71 kcal/mol
15,K20T,2.12 kcal/mol
16,K20W,1.75 kcal/mol
17,K20Q,2 kcal/mol
18,K20G,1.41 kcal/mol
19,K20M,2.15 kcal/mol
20,K20Y,1.99 kcal/mol
21,L24R,1.42 kcal/mol
22,L24M,1.91 kcal/mol
23,L24Y,2.15 kcal/mol
24,L24D,0.718 kcal/mol

row,Variant,folding stability dG
1,L24S,1.18 kcal/mol
2,L24H,1.46 kcal/mol
3,L24F,2.08 kcal/mol
4,L24N,0.838 kcal/mol
5,L24Q,1.27 kcal/mol
6,L24K,1.55 kcal/mol
7,L24A,2 kcal/mol
8,L24I,2.16 kcal/mol
9,L24E,1.1 kcal/mol
10,L24W,1.65 kcal/mol
11,L24G,0.321 kcal/mol
12,L24T,1.12 kcal/mol
13,L24V,2.14 kcal/mol
14,E17I,2.01 kcal/mol
15,E17D,1.95 kcal/mol
16,E17W,2.07 kcal/mol
17,E17V,1.83 kcal/mol
18,E17Y,2.02 kcal/mol
19,E17G,1.71 kcal/mol
20,E17T,1.89 kcal/mol
21,E17K,2 kcal/mol
22,E17H,1.88 kcal/mol
23,E17L,2.11 kcal/mol
24,E17M,2.1 kcal/mol

row,Variant,folding stability dG
1,E17S,1.97 kcal/mol
2,E17Q,2.04 kcal/mol
3,E17A,2.25 kcal/mol
4,E17R,2.23 kcal/mol
5,E17N,2.02 kcal/mol
6,E17F,1.97 kcal/mol
7,E18T,1.84 kcal/mol
8,E18V,1.96 kcal/mol
9,E18K,1.74 kcal/mol
10,E18G,1.74 kcal/mol
11,E18A,2.01 kcal/mol
12,E18N,1.9 kcal/mol
13,E18Y,2.29 kcal/mol
14,E18W,2.69 kcal/mol
15,E18S,1.99 kcal/mol
16,E18H,1.86 kcal/mol
17,E18F,2.12 kcal/mol
18,E18M,2.11 kcal/mol
19,E18L,2.08 kcal/mol
20,E18R,1.7 kcal/mol
21,E18I,2.15 kcal/mol
22,E18Q,1.97 kcal/mol
23,E18D,2.03 kcal/mol
